Assay results taken from PMC10957913, “GAS41 modulates ferroptosis by anchoring NRF2 on chromatin” (Nature Communications, 2024).

Target: T1, Flag-tagged GAS41, purified (human, UniProt O95619 1-227)
T1 construct: GAS41, human, full-length cDNA amplified from A549 cDNA; also called purified GAS41 proteins
Experiment: pull-down; GST or GST-NRF2 fragments on GST Bind Resin incubated with purified GAS41 in BC200 buffer for 4 h at 4 °C, washed six times with BC200; western blot
Settings: both partners purified

T1 sequence (O95619 whole entry): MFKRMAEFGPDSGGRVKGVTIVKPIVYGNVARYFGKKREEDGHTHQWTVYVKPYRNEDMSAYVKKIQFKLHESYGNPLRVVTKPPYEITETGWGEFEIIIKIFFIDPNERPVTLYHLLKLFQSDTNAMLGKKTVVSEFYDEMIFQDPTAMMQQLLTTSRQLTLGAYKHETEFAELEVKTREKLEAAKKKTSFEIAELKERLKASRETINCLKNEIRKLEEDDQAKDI

B1: GST-NRF2-CT (Neh1 and Neh3 domains of NRF2, AA. 434-605) (domain or fragment, UniProt Q16236 434-605, looked up)
chain: PGHRKTPFTKDKHSSRLEAHLTRDELRAKALHIPFPVEKIINLPVVDFNEMMSKEQFNEAQLALIRDIRRRGKNKVAAQNCRKRKLENIVELEQDLDHLKDEKEKLLKEKGENDKSLHLLKKQLSTLYLEVFSMLRDEDGKPYSPSEYSLQQTRDGNVFLVPKSKKPDVKKN
notes: NRF2, Neh1 and Neh3 domains, amino acids 434-605; That the 434-605 fragment is the construct called GST-NRF2-CT in the methods is inferred
binding result: binds
